Data set [1] addresses T1, ARΔNTD (AR DBD-hinge-LBD);Smt3-PTGES3 (mouse;human, UniProt P19091;Q15185 528-899;1-160, |). Nature of the data set: fluorescence polarization; 1 uM DHT; equimolar Smt3-PTGES3; binding stronger than ARΔNTD alone (P=0.0254); FP/EMSA: 150 mM NaCl, 20 mM HEPES pH 7.5, 1 mM TCEP, 1 uM DHT, 10% glycerol, 0.05% IGEPAL CA-630, 100 nM DNA; proteins preincubated 30 min on ice at 8 uM; assay temperature not stated. Mass photometry: same buffer at 5 uM, flash diluted into PBS to 10 nM. The settings on record: protein: recombinant;recombinant; tags: ;N-terminal Smt3; label: 5'-fluorescein (6-FAM) on sense strand; blunt. (Fluorescence polarisation rises when a labelled molecule tumbles more slowly, as on binding a larger partner.)

Data set [2] has as its target ARΔNTD (AR DBD-hinge-LBD);PTGES3 (tagless) (mouse;human, UniProt P19091;Q15185 528-899;1-160, |). Nature of the data set: fluorescence polarization; 1 uM DHT; equimolar PTGES3; binding stronger than ARΔNTD alone (P=0.0337); FP/EMSA: 150 mM NaCl, 20 mM HEPES pH 7.5, 1 mM TCEP, 1 uM DHT, 10% glycerol, 0.05% IGEPAL CA-630, 100 nM DNA; proteins preincubated 30 min on ice at 8 uM; assay temperature not stated. Mass photometry: same buffer at 5 uM, flash diluted into PBS to 10 nM. The conditions noted are these: protein: recombinant;recombinant; tags: ;Smt3 tag cleaved by Ulp1; label: 5'-fluorescein (6-FAM) on sense strand; blunt.

Data set [3] deals with ARΔNTD (AR DBD-hinge-LBD) (mouse, UniProt P19091 528-899). Nature of the data set: fluorescence polarization; 1 uM DHT; no PTGES3; apparent Kd only plotted; FP/EMSA: 150 mM NaCl, 20 mM HEPES pH 7.5, 1 mM TCEP, 1 uM DHT, 10% glycerol, 0.05% IGEPAL CA-630, 100 nM DNA; proteins preincubated 30 min on ice at 8 uM; assay temperature not stated. Mass photometry: same buffer at 5 uM, flash diluted into PBS to 10 nM. The settings on record: protein: recombinant; chain copies: 2; label: 5'-fluorescein (6-FAM) on sense strand; blunt.

The next data set deals with ARDBD;PTGES3 (tagless) (mouse;human, UniProt P19091;Q15185 528-631;1-160, |). Nature of the data set: EMSA; equimolar PTGES3 augments ARDBD binding; PTGES3 variant (tagless or Smt3) not stated; FP/EMSA: 150 mM NaCl, 20 mM HEPES pH 7.5, 1 mM TCEP, 1 uM DHT, 10% glycerol, 0.05% IGEPAL CA-630, 100 nM DNA; proteins preincubated 30 min on ice at 8 uM; assay temperature not stated. Mass photometry: same buffer at 5 uM, flash diluted into PBS to 10 nM. The conditions noted are these: protein: recombinant;recombinant; tags: ;Smt3 tag cleaved by Ulp1; label: 5'-fluorescein (6-FAM) on sense strand; blunt. (A gel shift assay detects complexes by their altered migration in electrophoresis.)

Data set [4] has as its target T1, ARΔNTD (AR DBD-hinge-LBD);Smt3-PTGES3. Nature of the data set: mass photometry; Smt3-PTGES3 restricts formation of heterogeneous complexes; FP/EMSA: 150 mM NaCl, 20 mM HEPES pH 7.5, 1 mM TCEP, 1 uM DHT, 10% glycerol, 0.05% IGEPAL CA-630, 100 nM DNA; proteins preincubated 30 min on ice at 8 uM; assay temperature not stated. Mass photometry: same buffer at 5 uM, flash diluted into PBS to 10 nM. The conditions noted are these: protein: recombinant;recombinant; tags: ;N-terminal Smt3; blunt.

T1 sequence (P19091 528-899, stated change not applied, chain 1 of 2): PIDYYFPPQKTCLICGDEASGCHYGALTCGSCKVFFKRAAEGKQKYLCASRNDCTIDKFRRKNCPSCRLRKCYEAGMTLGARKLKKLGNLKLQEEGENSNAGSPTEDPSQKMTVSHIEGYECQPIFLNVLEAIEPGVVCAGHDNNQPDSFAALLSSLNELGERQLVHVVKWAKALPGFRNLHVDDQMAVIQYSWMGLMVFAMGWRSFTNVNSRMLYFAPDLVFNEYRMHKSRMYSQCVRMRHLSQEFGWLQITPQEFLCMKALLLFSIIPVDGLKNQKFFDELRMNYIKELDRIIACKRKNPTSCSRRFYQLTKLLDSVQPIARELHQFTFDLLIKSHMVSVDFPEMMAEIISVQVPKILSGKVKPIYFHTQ
T1 sequence (Q15185 whole entry, stated change not applied, chain 2 of 2, the tested form may be a part): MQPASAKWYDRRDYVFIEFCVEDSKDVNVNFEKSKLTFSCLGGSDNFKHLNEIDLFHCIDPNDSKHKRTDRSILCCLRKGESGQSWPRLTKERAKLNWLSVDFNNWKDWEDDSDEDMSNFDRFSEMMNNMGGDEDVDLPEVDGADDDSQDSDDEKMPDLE
ARΔNTD (AR DBD-hinge-LBD);PTGES3 (tagless), sequence (P19091 528-899, stated change not applied, chain 1 of 2): as the sequence (P19091 528-899, stated change not applied, chain 1 of 2) above
ARΔNTD (AR DBD-hinge-LBD);PTGES3 (tagless), sequence (Q15185 whole entry, stated change not applied, chain 2 of 2, the tested form may be a part): as the sequence (Q15185 whole entry, stated change not applied, chain 2 of 2, the tested form may be a part) above
ARΔNTD (AR DBD-hinge-LBD), sequence (P19091 528-899, stated change not applied): as the sequence (P19091 528-899, stated change not applied, chain 1 of 2) above
ARDBD;PTGES3 (tagless), sequence (P19091 528-631, chain 1 of 2): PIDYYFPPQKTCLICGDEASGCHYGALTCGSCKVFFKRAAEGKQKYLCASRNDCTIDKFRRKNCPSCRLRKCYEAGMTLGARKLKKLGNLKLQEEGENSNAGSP
ARDBD;PTGES3 (tagless), sequence (Q15185 whole entry, chain 2 of 2): as the sequence (Q15185 whole entry, stated change not applied, chain 2 of 2, the tested form may be a part) above

B1: ARE 36 bp (dsDNA)
DNA 1: TAAAATGTAAACAACGTAGAACATCAGGAACTCCGG
DNA 2: CCGGAGTTCCTGATGTTCTACGTTGTTTACATTTTA
Turning to B1, the binding result in data set [1], in data set [2] and in data set [3] was “binds” each time.

B2: Canonical ARE 36 bp (dsDNA)
DNA 1: TAAAATGTAAACAACGTAGAACATCATGTTCTCCGG
DNA 2: CCGGAGAACATGATGTTCTACGTTGTTTACATTTTA
Take B2: in the data set with ARDBD;PTGES3 (tagless), the binding result is reported as “binds”.

B3: ARE 36 bp, unlabeled (mass photometry) (dsDNA)
DNA 1: TAAAATGTAAACAACGTAGAACATCATGTTCTCCGG
DNA 2: CCGGAGAACATGATGTTCTACGTTGTTTACATTTTA
For the molecule B3, in data set [4], the binding result is recorded as “binds”.

(Values after article PMC12695660, “Genome-scale CRISPR screens identify PTGES3 as a direct modulator of androgen receptor function in advanced prostate cancer”.)
